The record followed here is US20230212319A1, “NOVEL ANTIGEN BINDING DOMAINS AND SYNTHETIC ANTIGEN RECEPTORS INCORPORATING THE SAME” (University of Southern California, priority 2020, published 2023).

Assay type in all cases: cell-based
Test [1] has as its system Nalm6 cells. Briefly: JNG assay, co-culture with Nalm6 cells. The method in brief: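 Scoring uses % GFP+ reporter cells above the parental control, where +/-, +, 2+, 3+, 4+ and 5+ correspond to about 5, 10, 20, 30, 40 and 50%. Effectors were SAR-expressing Jurkat NFAT-GFP cells cocultured with targets (E:T ~1:2, ~4–18 h).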
Test [2] relates to RAJI cells. Briefly: JNG assay, co-culture with RAJI cells. In a few lines:
(§1)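 Jurkat NFAT-GFP (JNG) cells stably transduced with SARs by lentivirus, with drug selection where the construct carried a resistance gene, then co-cultured with target cells at E:T ~1:2 for ~4–18 h. % GFP-positive cells measured by FACS against parental JNG; +/- to 5+ correspond to ~5–50% GFP-positive.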

The test system of test [3] is RS;411. Briefly: JNG assay, co-culture with RS;411 cells. Particulars: for NFAT-GFP ASSAY: RS411: co-culture with RS411. On the procedure:
Cellular supernatant is collected and assayed for the induction of cytokines (e.g., IL2).
JNG (Jurkat cells expressing EGFP under an NFAT promoter) were infected with lentiviral vectors encoding different single chain and multi-chain SARs by spinfection in the presence of 8 µg/ml of Polybrene® (Sigma, Catalog no. H9268). The Jurkat-NFAT-GFP cells are engineered in such a way that the IL-2 promoter, which carries NFAT binding sites, is cloned upstream of the GFP gene. These cells have been used to study signaling via TCR and CAR. The different SARs were stably expressed in Jurkat NFAT-GFP cells by lentiviral mediated gene transfer, followed by selection with puromycin or blasticidin. No drug selection was used in case the construct lacked an antibiotic resistance gene. The SAR-expressing Jurkat-NFAT-GFP cells were cocultured with the target cells at E:T ratio of approximately 1:2 for approximately 4 hours to 18 hours. When the interaction between SIRs and their target antigen results in activation of the NFAT pathway, GFP expression is induced. […] GFP expression was monitored by FACS analysis. The Jurkat-NFAT-GFP (parental) cells were used as control. The structure of different constructs can be determined based on their names. […] The sequence of the other constructs in the table can be similarly determined from their names and by referring to the different Tables of this disclosure that provide the names and SEQ ID NO of the different modules. Alternatively, the composition and modular architecture of the different SAR constructs can be determined from their sequences by bioinformatics tools, including using nucleic acid and amino acids homology searches. A SAR is considered positive in the assay in case the SAR expressing Jurkat-NFAT-GFP cells show greater % GFP positive cells when cultured with the target cell line as compared to parental Jurkat-NFAT-GFP cells. […] In general, the number +/-, +, 2+, 3+, 4+, 5+ refer to approximately 5%, 10%, 20%, 30%, 40% and 50% GFP positive cells. The % of GFP induction in the above assay is dependent not only the relative strength of the SAR but also, among other factors, on the relative level of expression of the SAR in the JNG cells and the relative level of expression of the target antigen in the target cell line. To control for the difference in gene transduction efficiency of the different SAR constructs, the experiment was conducted with JNG cells transduced with SAR constructs co-expressing a drug resistance gene (e.g., puromycin or PAC) followed by drug selection to generate a stable population of SAR-expressing cells. It is to be noted that the drug resistance gene (e.g., PAC) in the SAR constructs is optional and in vivo studies were conducted with SAR constructs lacking the PAC gene.

In test [4] the test system is L363 cells. Briefly: JNG assay, co-culture with L363 cells. To be noted: co-culture with L363. The method in brief: as §1

B1: SEQ ID NO: 22162: bispecific SAR construct targeting CD19 and PD1 (protein)
chain: MALPVTALLLPLALLLHAARPDIQMTQSPSSLSASVGDRVTITCKASDHINNWLAWYQQKPGQAPKLLIYGATTLETGVPSRFSGSGSGTDYTLTISSLQPEDFATYYCQQSWNTPWTFGQGTKLEIKRLEDLKNVFPPEVAVFEPSEAEISHTQKATLVCLATGFYPDHVELSWWVNGKEVHSGVCTDPQPLKEQPALNDSRYCLSSRLRVSATFWQNPRNHFRCQVQFYGLSENDEWTQDRAKPVTQIVSAEAWGRADCGFTSESYQQGVLSATILYEILLGKATLYAVLVSALVLMAMVKRKDSRGRAKRSGSGATNFSLLKQAGDVEENPGPTSATMDWIWRILFLVGAATGAHSGPEVQLLESGGGLVQPGGSLRLSCAASGSIASIHAMGWFRQAPGKEREFVAVITWSGGITYYADSVKGRFTISRDNSKNTVYLQMNSLRPEDTALYYCAGDKHQSSWYDYWGQGTLVTVSSGSGGGGSGGGGSGGGGSFEQVQLQQPGAELVKPGASVKMSCKASGYAFSSYWINWMKQKPGQGLEWIGQIYPGDGDTNYNGKFKGRATLTADTSSSTAYMQLSSLTSEDSAVYFCARSITTVVGCAMDYWGQGTSVTVSSTRIQNPDPAVYQLRDSKSSDKSVCLFTDFDSQTNVSQSKDSDVYITDKCVLDMRSMDFKSNSAVAWSNKSDFACANAFNNSIIPEDTFFPSPESSCDVKLVEKSFETDTNLNFQNLSVIGFRILLLKVAGFNLLMTLRLWSSRAKRSGSGVKQTLNFDLLKLAGDVESNPGPSRGHMTEYKPTVRLATRDDVPRAVRTLAAAFADYPATRHTVDPDRHIERVTELQELFLTRVGLDIGKVWVADDGAAVAVWTTPESVEAGAVFAEIGPRMAELSGSRLAAQQQMEGLLAPHRPKEPAWFLATVGVSPDHQGKGLGSAVVLPGVEAAERAGVPAFLETSAPRNLPFYERLGFTVTADVEVPEGPRTWCMTRKPGA
With B1, the “GFP induction / activity” value in test [1] (co-culture with Nalm6 cells), in test [2] (co-culture with RAJI cells) and in test [3] (co-culture with RS;411 cells) was “robust activity” each time.

B2: 22143 (protein)
chain: MALPVTALLLPLALLLHAARPQVQLVESGGGLVQPGGSLRLSCAASGFTFTNHAMSWVRQAPGKGLELVSSISGNGRTTYYADSVKGRFTISRDISKNTLDLQMNSLRAEDTAVYYCAKDGGETLVDSRGQGTLVTVSSLEGGGGSGGGGSIEGGGGSGGGGSKVQLLESGGGLVQPGGSLRLSCAASGFIFSSYAMSWVRQAPGKGQEWVSGVSGTGVNTYYADSVKGRFTISRDNSKNTLYLQMNSLRAEDTAVYYCASGKGWDSGSWYEDYRGQGTLVTVSSGTGGGGSGGGGSGGGGSEFDIQMTQSPSSLSASVGDRVTITCKASDHINNWLAWYQQKPGQAPKLLIYGATTLETGVPSRFSGSGSGTDYTLTISSLQPEDFATYYCQQSWNTPWTFGQGTKLEIKRLEDLKNVFPPEVAVFEPSKAEIAHTQKATLVCLATGFYPDHVELSWWVNGKEVHSGVCTDPQPLKEQPALNDSRYCLSSRLRVSATFWQNPRNHFRCQVQFYGLSENDEWTQDRAKPVTQIVSAEAWGRADCGITSASYHQGVLSATILYEILLGKATLYAVLVSALVLMAMVKRKDSRGRAKRSGSGATNFSLLKQAGDVEENPGPTSATMDWIWRILFLVGAATGAHSGPQVQLQESGGGLAQAGGSLRLSCAASGRTFSMGWFRQAPGKEREFVAAITYSGGSPYYASSVRGRFTISRDNAKNTVYLQMNSLKPEDTAVYYCAANPTYGSDWNAENWGQGTQVTVSSGSGGGGSGGGGSGGGGSFEQVQLQQPGAELVKPGASVKMSCKASGYAFSSYWINWMKQKPGQGLEWIGQIYPGDGDTNYNGKFKGRATLTADTSSSTAYMQLSSLTSEDSAVYFCARSITTVVGCAMDYWGQGTSVTVSSTRIQNPDPAVYQLRDSKSSDKSVCLFTDFDSQTNVSQSKDSDVYITDKCVLDMRSMDFKSNSAVAWSNKSDFACANAFNNSIIPEDTFFPSSDVPCDVKLVEKSFETDTNLNFQNLSVIGFRILLLKVAGFNLLMTLRLWSSRAKRSGSGVKQTLNFDLLKLAGDVESNPGPSRGHMTEYKPTVRLATRDDVPRAVRTLAAAFADYPATRHTVDPDRHIERVTELQELFLTRVGLDIGKVWVADDGAAVAVWTTPESVEAGAVFAEIGPRMAELSGSRLAAQQQMEGLLAPHRPKEPAWFLATVGVSPDHQGKGLGSAVVLPGVEAAERAGVPAFLETSAPRNLPFYERLGFTVTADVEVPEGPRTWCMTRKPGA
As to B2, the “NFAT-GFP ASSAY: Raji” value in test [2] (JNG cells expressing construct, co-culture with Raji) was 2+ (refer to approximately 5%, 10%, 20%, 30%, 40% and 50% GFP positive cells). Also, the “NFAT-GFP ASSAY: RS411” value in test [3] was 2+ (refer to approximately 5%, 10%, 20%, 30%, 40% and 50% GFP positive cells). The “NFAT-GFP ASSAY: L363” value in test [4] was 2+ (refer to approximately 5%, 10%, 20%, 30%, 40% and 50% GFP positive cells).

B3: 22124 (protein)
chain: MALPVTALLLPLALLLHAARPEVQLVESGGGLVQAGGSLRLSCAASGRTFSMGWFRQAPGKEREFVAAITYSGGSPYYADSVKGRFTISRDNAKNTVYLQMNSLKPEDTAVYYCAANPTYGSDWNAENWGQGTQVTVSSGGGGSGGGGSQLQLQESGPGLVKPSETLSLTCTVSGGSISSGDYYWGWIRQPPGKGLEWIGSISYSGSTYYNPSLKSRVTISVDTSRNQFSLKLSSVTAADTAVYYCTREDSSNWRSRGQGTLVTVSSGTGGGGSGGGGSGGGGSEFDIQMTQSPSSLSASVGDRVTITCKASDHINNWLAWYQQKPGQAPKLLIYGATTLETGVPSRFSGSGSGTDYTLTISSLQPEDFATYYCQQSWNTPWTFGQGTKLEIKRLEIQNPDPAVYQLRDSKSSDKSVCLFTDFDSQTNVSQSKDSDVYITDKCVLDMRSMDFKSNSAVAWSNKSDFACANAFNNSIIPEDTFFPSSDVPCDVKLVEKSFETDTNLNFQNLSVIGFRILLLKVAGFNLLMTLRLWSSRAKRSGSGVKQTLNFDLLKLAGDVESNPGPTSATMDWIWRILFLVGAATGAHSGPQVQLQESGGGLAQAGGSLRLSCAASGRTFSMGWFRQAPGKEREFVAAITYSGGSPYYASSVRGRFTISRDNAKNTVYLQMNSLKPEDTAVYYCAANPTYGSDWNAENWGQGTQVTVSSGSGGGGSGGGGSGGGGSFEQVQLQQPGAELVKPGASVKMSCKASGYAFSSYWINWMKQKPGQGLEWIGQIYPGDGDTNYNGKFKGRATLTADTSSSTAYMQLSSLTSEDSAVYFCARSITTVVGCAMDYWGQGTSVTVSSTREDLKNVFPPEVAVFEPSKAEIAHTQKATLVCLATGFYPDHVELSWWVNGKEVHSGVCTDPQPLKEQPALNDSRYCLSSRLRVSATFWQNPRNHFRCQVQFYGLSENDEWTQDRAKPVTQIVSAEAWGRADCGITSASYHQGVLSATILYEILLGKATLYAVLVSALVLMAMVKRKDSRGRAKRSGSGATNFSLLKQAGDVEENPGPSRGHMTEYKPTVRLATRDDVPRAVRTLAAAFADYPATRHTVDPDRHIERVTELQELFLTRVGLDIGKVWVADDGAAVAVWTTPESVEAGAVFAEIGPRMAELSGSRLAAQQQMEGLLAPHRPKEPAWFLATVGVSPDHQGKGLGSAVVLPGVEAAERAGVPAFLETSAPRNLPFYERLGFTVTADVEVPEGPRTWCMTRKPGA
Take B3: the “NFAT-GFP ASSAY: Nalm6” value in test [1] (co-culture with Nalm6) is 2+ (refer to approximately 5%, 10%, 20%, 30%, 40% and 50% GFP positive cells). Further, the “NFAT-GFP ASSAY: RS411” value in test [3] is 2+ (refer to approximately 5%, 10%, 20%, 30%, 40% and 50% GFP positive cells).
